Measurements as given in the supplement of paper PMC9732359.
± gives the uncertainty stated by the source.

Assay: protein stability index of a GFP-peptide fusion (yeast GPS) (PSI 1-4); higher = more stable; sorted into four equal gates, so the index is relative within each strain
Outline: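 Each library plasmid carries Cherry plus GFP with a tiled 17-residue yeast protein peptide fused downstream, and the pooled library was carried in yeast. Mid-log cultures in leucine-free medium were sorted into four equal gates by GFP/Cherry ratio. Reads from Illumina sequencing of PCR-amplified plasmids from each gate were assigned to strains by barcodes. Per peptide, the protein stability index was computed as the summed products of gate read frequency and gate number.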

Sequence: VISFGQPKLNPMASSSS [SWI1]
- protein stability index (doa10∆): 2.15 ± 0.06
- protein stability index (pdr5∆): 1.92 ± 0.074
- protein stability index (san1∆): 2.61 ± 0.11
- protein stability index (ubr1∆): 2.13 ± 0.056

Sequence: VISIVGGHSLEEISFSL [PRP28]
- protein stability index (doa10∆): 2.82 ± 0.13
- protein stability index (pdr5∆): 2.73 ± 0.13
- protein stability index (san1∆): 3.19 ± 0.091
- protein stability index (ubr1∆): 3.18 ± 0.13

Sequence: VISNLVPKLESSRTKFW [YJL039C/NUP192]
- protein stability index (doa10∆): 2.36 ± 0.26
- protein stability index (pdr5∆): 2.6 ± 0.13
- protein stability index (san1∆): 2.48 ± 0.28
- protein stability index (ubr1∆): 2.69 ± 0.2

Sequence: VIVPQIVLDEVRNKSYP [DIS3]
- protein stability index (doa10∆): 2.68 ± 0.066
- protein stability index (pdr5∆): 2.33 ± 0.089
- protein stability index (san1∆): 2.79 ± 0.11
- protein stability index (ubr1∆): 1.46 ± 0.04

Sequence: VKAILMQRHVKVDGKVR [RPS4A]
- protein stability index (doa10∆): 3.13 ± 0.15
- protein stability index (pdr5∆): 3.09 ± 0.11
- protein stability index (san1∆): 3.55 ± 0.2
- protein stability index (ubr1∆): 2.9 ± 0.086

Sequence: VKESNNYYSNKSNSTGN [REC8]
- protein stability index (doa10∆): 2.44 ± 0.067
- protein stability index (pdr5∆): 2.71 ± 0.085
- protein stability index (san1∆): 2.56 ± 0.07
- protein stability index (ubr1∆): 2.97 ± 0.046

Sequence: VKEYQLRDRNFSATGNF [RPL11A]
- protein stability index (doa10∆): 3.29 ± 0.097
- protein stability index (pdr5∆): 3.27 ± 0.1
- protein stability index (san1∆): 2.85 ± 0.28
- protein stability index (ubr1∆): 3.22 ± 0.089

Sequence: VKIMRDPAKSRTGPKAL [RPS3]
- protein stability index (doa10∆): 3.35 ± 0.21
- protein stability index (pdr5∆): 3.33 ± 0.12
- protein stability index (san1∆): 3.06 ± 0.1
- protein stability index (ubr1∆): 3.52 ± 0.11

Sequence: VKKPTFTFGQSTSENKI [YOR098C/NUP1]
- protein stability index (doa10∆): 3.02 ± 0.21
- protein stability index (pdr5∆): 2.87 ± 0.21
- protein stability index (san1∆): 3.14 ± 0.2
- protein stability index (ubr1∆): 3.45 ± 0.14

Sequence: VKLWEEDPDQEECSGRR [YGL100W/SEH1]
- protein stability index (doa10∆): 3.18 ± 0.084
- protein stability index (pdr5∆): 3.08 ± 0.081
- protein stability index (san1∆): 3.37 ± 0.04
- protein stability index (ubr1∆): 3.37 ± 0.055

Sequence: VKSKIQDKEGIPPDQQR [RPS31]
- protein stability index (doa10∆): 3.08 ± 0.076
- protein stability index (pdr5∆): 3.48 ± 0.075
- protein stability index (san1∆): 3.41 ± 0.051
- protein stability index (ubr1∆): 3.44 ± 0.061

Sequence: VKTTLVSLTQLRCVKYL [RPC82]
- protein stability index (doa10∆): 1.4 ± 0.13
- protein stability index (pdr5∆): 1.27 ± 0.079
- protein stability index (san1∆): 1.16 ± 0.25
- protein stability index (ubr1∆): 1.37 ± 0.11

Sequence: VKVHMDSETSDPNEVEI [DIS3]
- protein stability index (doa10∆): 3.29 ± 0.089
- protein stability index (pdr5∆): 3.5 ± 0.086
- protein stability index (san1∆): 3.5 ± 0.077
- protein stability index (ubr1∆): 3.52 ± 0.088

Sequence: VKVVDAGNKVGQSEASL [RPP0]
- protein stability index (pdr5∆): 3.58 ± 0.22

Sequence: VLDSYTPSTNEPYARVS [FAS1]
- protein stability index (doa10∆): 2.94 ± 0.054
- protein stability index (pdr5∆): 2.76 ± 0.053
- protein stability index (san1∆): 2.71 ± 0.066
- protein stability index (ubr1∆): 3.01 ± 0.044

Sequence: VLEYLAAEILELAGNAA [HTA1]
- protein stability index (doa10∆): 2.85 ± 0.1
- protein stability index (pdr5∆): 2.44 ± 0.1
- protein stability index (san1∆): 2.54 ± 0.081
- protein stability index (ubr1∆): 2.84 ± 0.1

Sequence: VLISKLSCEKITHYAVR [RRI1]
- protein stability index (doa10∆): 1.45 ± 0.046
- protein stability index (pdr5∆): 1.64 ± 0.051
- protein stability index (san1∆): 1.66 ± 0.07
- protein stability index (ubr1∆): 1.67 ± 0.039

Sequence: VLKACGILSDLEIMQLV [RET1]
- protein stability index (doa10∆): 1.56 ± 0.11
- protein stability index (san1∆): 1.46 ± 0.22
- protein stability index (ubr1∆): 2.56 ± 0.082

Sequence: VLKEKDVPAYNVTSFMP [SRB8]
- protein stability index (doa10∆): 3.11 ± 0.064
- protein stability index (pdr5∆): 3.01 ± 0.051
- protein stability index (san1∆): 3.03 ± 0.051
- protein stability index (ubr1∆): 3 ± 0.037

Sequence: VLKKPNRAMEYDALLSI [RET1]
- protein stability index (pdr5∆): 2.33 ± 0.19
- protein stability index (san1∆): 1.69 ± 0.28

Sequence: VLPDADVKLLHSQFMKD [YJL039C/NUP192]
- protein stability index (pdr5∆): 2.21 ± 0.12
- protein stability index (ubr1∆): 2.27 ± 0.25

Sequence: VLPNTALKTSIQHVGMI [FAS1]
- protein stability index (doa10∆): 2.95 ± 0.12
- protein stability index (pdr5∆): 2.6 ± 0.16
- protein stability index (san1∆): 1.93 ± 0.14
- protein stability index (ubr1∆): 2.4 ± 0.24

Sequence: VLRINKMLSCAGADRLQ [RPL10]
- protein stability index (doa10∆): 1.1 ± 0.092
- protein stability index (pdr5∆): 1.28 ± 0.14
- protein stability index (san1∆): 1.17 ± 0.21
- protein stability index (ubr1∆): 1.11 ± 0.084

Sequence: VLRIPEEYLDANVFRLE [MTW1]
- protein stability index (doa10∆): 3.34 ± 0.1
- protein stability index (pdr5∆): 3.44 ± 0.097
- protein stability index (san1∆): 3.19 ± 0.072
- protein stability index (ubr1∆): 3.23 ± 0.053

Sequence: VLSPDSNIMSDSKKIKV [GAL11]
- protein stability index (doa10∆): 2.03 ± 0.13
- protein stability index (pdr5∆): 2.42 ± 0.095
- protein stability index (san1∆): 2.44 ± 0.12
- protein stability index (ubr1∆): 2.21 ± 0.12

Sequence: VLSTFTAEFGKILAGLH [RPN10]
- protein stability index (doa10∆): 3.11 ± 0.14
- protein stability index (pdr5∆): 3.44 ± 0.15
- protein stability index (san1∆): 3.1 ± 0.14
- protein stability index (ubr1∆): 3.05 ± 0.11

Sequence: VMKQVETLVLDEADKMI [PRP28]
- protein stability index (san1∆): 3.42 ± 0.13
- protein stability index (ubr1∆): 3.04 ± 0.12

Sequence: VMLLGTPDANLISKPAK [UBP6]
- protein stability index (pdr5∆): 3.28 ± 0.13
- protein stability index (san1∆): 2.98 ± 0.13
- protein stability index (ubr1∆): 3.32 ± 0.12

Sequence: VMRNEIRITSLQGDLTF [SIR4]
- protein stability index (doa10∆): 2.8 ± 0.073
- protein stability index (pdr5∆): 2.35 ± 0.062
- protein stability index (san1∆): 2.65 ± 0.081
- protein stability index (ubr1∆): 2.68 ± 0.063

Sequence: VNAPLPTPFKVDDNVDF [RPN2]
- protein stability index (doa10∆): 2.91 ± 0.077
- protein stability index (pdr5∆): 2.75 ± 0.051
- protein stability index (san1∆): 2.74 ± 0.08
- protein stability index (ubr1∆): 2.96 ± 0.086

Sequence: VNDSVISAPSMEDEILS [BRN1]
- protein stability index (doa10∆): 2.05 ± 0.1
- protein stability index (pdr5∆): 2.29 ± 0.089
- protein stability index (san1∆): 2.41 ± 0.11
- protein stability index (ubr1∆): 2.86 ± 0.073

Sequence: VNDVEELGEIIDEDIGN [RMP1]
- protein stability index (doa10∆): 3.41 ± 0.15
- protein stability index (san1∆): 2.98 ± 0.2
- protein stability index (ubr1∆): 3.19 ± 0.28

Sequence: VNEPTKNEEAEIEVDEM [RPN1]
- protein stability index (doa10∆): 3.25 ± 0.17
- protein stability index (pdr5∆): 3.22 ± 0.23
- protein stability index (san1∆): 3.08 ± 0.14
- protein stability index (ubr1∆): 3.45 ± 0.16

Sequence: VNGPNVHPGANYLLKRN [RPO31]
- protein stability index (doa10∆): 3.29 ± 0.056
- protein stability index (pdr5∆): 3.21 ± 0.068
- protein stability index (san1∆): 3.26 ± 0.044
- protein stability index (ubr1∆): 3.21 ± 0.037

Sequence: VNGRTKSNTIPVTSIPS [GAL11]
- protein stability index (doa10∆): 2.9 ± 0.072
- protein stability index (pdr5∆): 2.87 ± 0.11
- protein stability index (san1∆): 2.99 ± 0.077
- protein stability index (ubr1∆): 2.95 ± 0.079

Sequence: VNHLLLFAREIAKSQDK [DPB4]
- protein stability index (doa10∆): 2.06 ± 0.15
- protein stability index (pdr5∆): 2.85 ± 0.16
- protein stability index (san1∆): 2.76 ± 0.14
- protein stability index (ubr1∆): 2.08 ± 0.068

Sequence: VNQDKANNASQITPTVP [SNF12]
- protein stability index (doa10∆): 3.03 ± 0.083
- protein stability index (pdr5∆): 3.19 ± 0.081
- protein stability index (san1∆): 3.11 ± 0.063
- protein stability index (ubr1∆): 3.18 ± 0.054

Sequence: VNQTGSTKKDTVQLTFL [YCG1]
- protein stability index (doa10∆): 3.05 ± 0.29
- protein stability index (pdr5∆): 3 ± 0.16
- protein stability index (ubr1∆): 2.9 ± 0.16

Sequence: VNSYRLNPNEYFSVTTA [SWI3]
- protein stability index (pdr5∆): 2.84 ± 0.2
- protein stability index (san1∆): 2.3 ± 0.26
- protein stability index (ubr1∆): 2.78 ± 0.22

Sequence: VNYNSDMIKCFLPKLNS [NUT1]
- protein stability index (doa10∆): 2.66 ± 0.13
- protein stability index (pdr5∆): 1.98 ± 0.12
- protein stability index (san1∆): 2.06 ± 0.13
- protein stability index (ubr1∆): 1.27 ± 0.066

Sequence: VNYRHFKAMEDVIAWKN [ITC1]
- protein stability index (doa10∆): 2.98 ± 0.15
- protein stability index (pdr5∆): 3.36 ± 0.17
- protein stability index (san1∆): 3.27 ± 0.077
- protein stability index (ubr1∆): 3.37 ± 0.065

Sequence: VPEMIGSVVGIYNGKAF [RPS15]
- protein stability index (doa10∆): 1.27 ± 0.15
- protein stability index (pdr5∆): 1.34 ± 0.074
- protein stability index (san1∆): 1.66 ± 0.24
- protein stability index (ubr1∆): 1.41 ± 0.072

Sequence: VPHSHPSDMVIPDHLAE [SNF12]
- protein stability index (doa10∆): 2.04 ± 0.047
- protein stability index (pdr5∆): 2.39 ± 0.047
- protein stability index (san1∆): 2.22 ± 0.068
- protein stability index (ubr1∆): 2.31 ± 0.03

Sequence: VPKHMLDKLDEILYYQI [AAR2]
- protein stability index (doa10∆): 2.91 ± 0.069
- protein stability index (pdr5∆): 3 ± 0.099
- protein stability index (san1∆): 2.95 ± 0.076
- protein stability index (ubr1∆): 3.17 ± 0.063

Sequence: VPSFLRPDITMYCRPAP [GRR1]
- protein stability index (doa10∆): 2.12 ± 0.053
- protein stability index (pdr5∆): 2.39 ± 0.045
- protein stability index (san1∆): 2.1 ± 0.057
- protein stability index (ubr1∆): 2.38 ± 0.051

Sequence: VPTSIQTKRWPTMYTRL [SIN4]
- protein stability index (doa10∆): 2.18 ± 0.048
- protein stability index (pdr5∆): 2.57 ± 0.05
- protein stability index (san1∆): 2.5 ± 0.047
- protein stability index (ubr1∆): 2.62 ± 0.039

Sequence: VPVIVKARFVSKLAEEK [RPL28]
- protein stability index (doa10∆): 2.71 ± 0.024
- protein stability index (pdr5∆): 2.832 ± 0.024
- protein stability index (san1∆): 2.786 ± 0.018
- protein stability index (ubr1∆): 2.861 ± 0.02

Sequence: VPYVLMGQIATFIYFAY [COB]
- protein stability index (doa10∆): 1.38 ± 0.1
- protein stability index (pdr5∆): 1.23 ± 0.1
- protein stability index (san1∆): 1.17 ± 0.16
- protein stability index (ubr1∆): 1.28 ± 0.078

Sequence: VQDLGSAISVTNVEDPL [SIR2]
- protein stability index (doa10∆): 2.34 ± 0.069
- protein stability index (pdr5∆): 1.97 ± 0.064
- protein stability index (san1∆): 2.47 ± 0.13
- protein stability index (ubr1∆): 2.21 ± 0.054

Sequence: VQDRGLSAVAQAESMKF [RPS3]
- protein stability index (doa10∆): 3.16 ± 0.11
- protein stability index (pdr5∆): 3.16 ± 0.11
- protein stability index (san1∆): 2.73 ± 0.15
- protein stability index (ubr1∆): 2.9 ± 0.075

Sequence: VQELLKVLNEISKTTLT [RPN3]
- protein stability index (doa10∆): 3.1 ± 0.15
- protein stability index (pdr5∆): 3.29 ± 0.074
- protein stability index (san1∆): 3.17 ± 0.055
- protein stability index (ubr1∆): 3.39 ± 0.071
